Laboratory results as given in US11193929.
Where no end group is shown, it is not given here. [ ]: non-standard residue; d: D form. AEEA = NCCOCCOCC(=O)O

Key:
[1] = biological target: 3D5F7 monoclonal antibody, Fab' fragment coupled to alkaline phosphatase; assay: VIDAS one-step sandwich immunoassay; capture 19C7+B90 on tip, detection 3D5F7+7B9 Fab'-alkaline phosphatase; peptide (20 ng/mL peptide)
[2] = biological target: 3D5F7 monoclonal antibody, Fab' fragment coupled to alkaline phosphatase; assay: VIDAS one-step sandwich immunoassay; capture 19C7+B90 on tip, detection 3D5F7+7B9 Fab'-alkaline phosphatase; peptide (50 ng/mL peptide)
[3] = biological target: 3D5F7 monoclonal antibody, Fab' fragment coupled to alkaline phosphatase; assay: VIDAS one-step sandwich immunoassay; capture 19C7+B90 on tip, detection 3D5F7+7B9 Fab'-alkaline phosphatase; peptide (100 ng/mL peptide)
[4] = biological target: 3D5F7 monoclonal antibody, Fab' fragment coupled to alkaline phosphatase; assay: VIDAS one-step sandwich immunoassay; capture 19C7+B90 on tip, detection 3D5F7+7B9 Fab'-alkaline phosphatase; peptide (200 ng/mL peptide)
[5] = biological target: 3D5F7 monoclonal antibody, Fab' fragment coupled to alkaline phosphatase; assay: VIDAS one-step sandwich immunoassay; capture 19C7+B90 on tip, detection 3D5F7+7B9 Fab'-alkaline phosphatase; peptide at (500 ng/mL peptide)
[6] = biological target: 3D5F7 monoclonal antibody, Fab' fragment coupled to alkaline phosphatase; assay: VIDAS one-step sandwich immunoassay; capture 19C7+B90 on tip, detection 3D5F7+7B9 Fab'-alkaline phosphatase; peptide at (1000 ng/mL peptide)
[7] = biological target: 3D5F7 monoclonal antibody, Fab' fragment coupled to alkaline phosphatase; assay: VIDAS one-step sandwich immunoassay; capture 19C7+B90 on tip, detection 3D5F7+7B9 Fab'-alkaline phosphatase; peptide at (2000 ng/mL peptide)
[8] = biological target: 3D5F7 monoclonal antibody, Fab' fragment coupled to alkaline phosphatase; assay: VIDAS one-step sandwich immunoassay; capture 19C7+B90 on tip, detection 3D5F7+7B9 Fab'-alkaline phosphatase; peptide at (4000 ng/mL peptide)
[9] = biological target: 3D5F7 monoclonal antibody, Fab' fragment coupled to alkaline phosphatase; assay: VIDAS one-step sandwich immunoassay; capture 19C7+B90 on tip, detection 3D5F7+7B9 Fab'-alkaline phosphatase; (10 ng/mL peptide)
[10] = biological target: 3D5F7 monoclonal antibody, Fab' fragment coupled to alkaline phosphatase; assay: VIDAS one-step sandwich immunoassay; capture 19C7+B90 on tip, detection 3D5F7+7B9 Fab'-alkaline phosphatase; peptide at 2 ng/mL
[11] = biological target: 3D5F7 monoclonal antibody, Fab' fragment coupled to alkaline phosphatase; assay: VIDAS one-step sandwich immunoassay; capture 19C7+B90 on tip, detection 3D5F7+7B9 Fab'-alkaline phosphatase; compound (5 ng/mL peptide)
[12] = biological target: 3D5F7 monoclonal antibody, Fab' fragment coupled to alkaline phosphatase; assay: VIDAS one-step sandwich immunoassay; capture 19C7+B90 on tip, detection 3D5F7+7B9 Fab'-alkaline phosphatase; compound (50 ng/mL peptide)
[13] = biological target: 3D5F7 monoclonal antibody, Fab' fragment coupled to alkaline phosphatase; assay: VIDAS one-step sandwich immunoassay; capture 19C7+B90 on tip, detection 3D5F7+7B9 Fab'-alkaline phosphatase; compound at (1 ng/mL peptide)
[14] = biological target: 3D5F7 monoclonal antibody, Fab' fragment coupled to alkaline phosphatase; assay: VIDAS one-step sandwich immunoassay; capture 19C7+B90 on tip, detection 3D5F7+7B9 Fab'-alkaline phosphatase; compound at (20 ng/mL peptide)

signal in RFV [1] [RFV]	signal in RFV [2] [RFV]	signal in RFV [3] [RFV]	signal in RFV [4] [RFV]	signal in RFV [5] [RFV]	signal in RFV [6] [RFV]	signal in RFV [7] [RFV]	signal in RFV [8] [RFV]	signal in RFV [9] [RFV]	signal in RFV [10] [RFV]	signal in RFV [11] [RFV]	signal in RFV [12] [RFV]	signal in RFV [13] [RFV]	signal in RFV [14] [RFV]	Binder
2	21	69	356	1820	3800	6140	7540							ATEPHAKKKCAGLGFAELQDL ((Ado)2 (dimer of 8-amino-3,6-dioxaoctanoic acid) between ATEPHAKKK and C and between C and AGLGFAELQDL; C-terminal amide) [Noncoupled peptide 1]
								1690	360	882	6210	175	3280	ATEPHAKKK[AEEA][AEEA]CAGLGFAELQDL-NH2 (peptide, part only; not given: polyclonal rabbit IgG carrier, part only, not fully specified (some residues); numbers in words are those of the source; also: Cys thioether-coupled to IgG carrier, about 10 peptides per IgG) [Compound 3 (Peptide 1 - IgG)]
